{
  "source": "patent US20190135911A1",
  "about": "“TREATING RESPIRATORY DISEASES BY TARGETING INTERLEUKIN 4 INDUCED 1 (IL4I1)” (Five Prime Therapeutics, Inc., priority 2016, published 2019)",
  "molecules": {"B1": {"name": "IL4I1: Human IL4I1 protein (R&D Systems #5684-AO) added to the co-culture media (protein, UniProt Q96RQ9 22-567, looked up)", "L-amino-acid oxidase": "QDWKAERSQDPFEKCMQDPDYEQLLKVVTWGLNRTLKPQRVIVVGAGVAGLVAAKVLSDAGHKVTILEADNRIGGRIFTYRDQNTGWIGELGAMRMPSSHRILHKLCQGLGLNLTKFTQYDKNTWTEVHEVKLRNYVVEKVPEKLGYALRPQEKGHSPEDIYQMALNQALKDLKALGCRKAMKKFERHTLLEYLLGEGNLSRPAVQLLGDVMSEDGFFYLSFAEALRAHSCLSDRLQYSRIVGGWDLLPRALLSSLSGLVLLNAPVVAMTQGPHDVHVQIETSPPARNLKVLKADVVLLTASGPAVKRITFSPPLPRHMQEALRRLHYVPATKVFLSFRRPFWREEHIEGGHSNTDRPSRMIFYPPPREGALLLASYTWSDAAAAFAGLSREEALRLALDDVAALHGPVVRQLWDGTGVVKRWAEDQHSQGGFVVQPPALWQTEKDDWTVPYGRIYFAGEHTAYPHGWVETAVKSALRAAIKINSRKGPASDTASPEGHASDMEGQGHVHGVASSPSHDLAKEEGSHPPVQGQLSLQNTTHTRTSH"}},
  "tested_on": "moDCs in co-culture with bronchial epithelial cells from COPD patients",
  "experiment": "moDC / COPD bronchial epithelial cell co-culture treated with IL4I1, DC mRNA levels (Quantigene multiplex panel)",
  "type": "cell-based, human",
  "conditions": "IL4I1 serially diluted into basolateral media; 24 hr BEC pre-incubation, 24 hr co-culture with DCs (COPD donor #AB63); normalized to GAPDH; FIG. 2",
  "from_the_text": "To differentiate airway epithelium in vitro, healthy smoker derived bronchial epithelial cells (Lonza lot #7F3833, 489, 237440, 899; Epithelix lot #13086) and COPD patient derived bronchial epithelial cells (Lonza lot #3313, 498, 3207, 3379; Epithelix lot #AB63, 472) were expanded according to the Lonza protocol with the following modification: the cells were subjected to two passages in Lonza BEBM media with supplements as reported in Widdicombe et al. (BioTechniques 39:249-255, August 2005). Cells were seeded onto collagen coated 0.4 um 96 transwell plates at 15,000 cells per 75 μl of the above media, and 235 μl of the same media was added to the basolateral receiver plate. After 3 days (with a single apical media change of the same volume), the apical media was completely removed in an airlift. To induce differentiation the cells were then cultured for 18 days with PneumaCult-ALI Medium (StemCell Technologies, #05001).\nDC were generated as follows. […] After 48 hrs of cell culture, DC were lysed and mRNA levels were measured by microarray. […]\nCo-cultures were initiated as described above. […] After 24 hr coculture the DCs were lysed and mRNA levels were measured with an Affymetrix Quantigene multiplex panel on a FlexMap 3D instrument. For each gene the relative luminescence was normalized to a housekeeper gene GAPDH.",
  "note": "Entries after “also recorded” stand apart in the source; their conditions may differ.",
  "data": [
    {"molecule": "B1", "values": [
      {"measurement": "mRNA expression of dendritic cell genes (CXCL5, PTGES, S100A8, SERPINB2, THBS1)", "value": "enhanced mRNA expression; also recorded: further enhances the expression"}
    ]}
  ]
}
